Experimental data from the Immune Epitope Database (IEDB).
Each block holds one sequence with its values, some of them ahead of it.

Legend:
HLA-B*15:42 = test: IEDB peptide-MHC binding, purified MHC/competitive/fluorescence; filed as Kd, often an IC50 or EC50 that approximates it; ≥ and ≤ were set here for values at or beyond the usual limits of such assays
HLA-B*45:06 = test: as above
HLA-B*83:01 = test: as above
HLA-C*14:02 = test: as above
HLA-A*01:01 = test: as above; details: source organism: Staphylococcus aureus subsp. aureus N315
HLA-A*68:23 = test: as above
HLA-B*51:01 = test: as above
HLA-B*07:02 = test: as above; details: source organism: Influenza A virus (A/Kayano/57(H2N2))
HLA-B*35:01 = test: as above; details: source organism: Influenza A virus (A/Kayano/57(H2N2))
HLA-C*05:01 = test: IEDB peptide-MHC binding, purified MHC/direct/fluorescence; filed as Kd, often an IC50 or EC50 that approximates it; ≥ and ≤ were set here for values at or beyond the usual limits of such assays
HLA-C*07:02 = test: as above
HLA-C*03:03 = test: as above
HLA-A*02:01 [1] = test: as above; details: source organism: Orthohantavirus hantanense
HLA-A*02:19 = test: as above; details: source organism: Hantaan virus Q32
HLA-A*02:12 = test: as above; details: source organism: Hantaan virus Q32
HLA-A*02:11 = test: as above; details: source organism: Hantaan virus Q32
HLA-A*26:01 [2] = test: IEDB peptide-MHC binding, purified MHC/competitive/fluorescence; filed as Kd, often an IC50 or EC50 that approximates it; ≥ and ≤ were set here for values at or beyond the usual limits of such assays; details: source organism: Homo sapiens
HLA-B*15:01 = test: as above; details: source organism: Homo sapiens
HLA-B*18:01 = test: as above; details: source organism: Homo sapiens
HLA-B*39:01 = test: as above; details: source organism: Homo sapiens
HLA-B*46:01 = test: as above; details: source organism: Homo sapiens
HLA-B*57:01 = test: as above; details: source organism: Homo sapiens
HLA-B*27:03 = test: as above; details: source organism: Homo sapiens
HLA-A*02:01 [3] = test: as above; details: source organism: Vaccinia virus WR
HLA-A*69:01 = test: IEDB peptide-MHC binding, purified MHC/direct/fluorescence; filed as Kd, often an IC50 or EC50 that approximates it; ≥ and ≤ were set here for values at or beyond the usual limits of such assays; details: source organism: Mycobacterium tuberculosis
HLA-B*27:05 = test: IEDB peptide-MHC binding, purified MHC/competitive/fluorescence; filed as Kd, often an IC50 or EC50 that approximates it; ≥ and ≤ were set here for values at or beyond the usual limits of such assays
HLA-B*15:02 = test: as above
HLA-B*48:01 = test: as above
HLA-A*26:01 [4] = test: IEDB peptide-MHC binding, purified MHC/direct/fluorescence; filed as Kd, often an IC50 or EC50 that approximates it; ≥ and ≤ were set here for values at or beyond the usual limits of such assays; details: source organism: Vibrio vulnificus CMCP6
HLA-A*26:02 = test: as above
[5] = source organism: Staphylococcus aureus subsp. aureus N315
[6] = source organism: Influenza A virus (A/Kayano/57(H2N2))

Sequence: YTIGIGAFY
Kd (HLA-B*15:42; [5]): ≥ 5000 nM
Kd (HLA-B*45:06; [5]): ≥ 5000 nM
Kd (HLA-B*83:01; [5]): ≥ 5000 nM
Kd (HLA-C*14:02; [5]): 9.4 nM
Kd (HLA-A*01:01): 1.5 nM
Kd (HLA-A*68:23; [5]): ≤ 0.1 nM

Sequence: LPFHNVHPL
Kd (HLA-B*51:01; [6]): 202 nM
Kd (HLA-B*07:02): 5.6 nM
Kd (HLA-B*35:01): ≤ 0.1 nM
Kd (HLA-C*05:01; [6]): ≥ 20000 nM
Kd (HLA-C*07:02; [6]): 2490 nM

Sequence: SQDDNYFTL
Kd (HLA-C*03:03; source organism: Giardia lamblia P15): 266 nM

Sequence: FMFNDLLKL
Kd (HLA-A*02:01 [1]): ≤ 1 nM
Kd (HLA-A*02:19): 15 nM
Kd (HLA-A*02:12): 3 nM
Kd (HLA-A*02:11): ≤ 1 nM
Kd (HLA-C*03:03; source organism: Orthohantavirus): 1250 nM

Kd (HLA-B*15:42; source organism: Homo sapiens): ≥ 5000 nM
Kd (HLA-B*45:06; source organism: Homo sapiens): ≥ 5000 nM
Kd (HLA-B*83:01; source organism: Homo sapiens): ≥ 5000 nM
Kd (HLA-C*14:02; source organism: Homo sapiens): 112 nM
Kd (HLA-A*68:23; source organism: Homo sapiens): 67.7 nM
Sequence: RLPKDFVDL

Kd (HLA-A*26:01 [2]): ≥ 20000 nM
Kd (HLA-B*15:01): ≥ 20000 nM
Kd (HLA-B*51:01; source organism: Homo sapiens): ≥ 20000 nM
Kd (HLA-B*18:01): ≥ 20000 nM
Kd (HLA-B*39:01): ≥ 20000 nM
Kd (HLA-B*46:01): ≥ 20000 nM
Kd (HLA-B*57:01): ≥ 20000 nM
Kd (HLA-B*27:03): ≥ 20000 nM
Kd (HLA-C*05:01; source organism: Homo sapiens): 8 nM
Sequence: LTDSSTLLV

Sequence: FLHESDPMV
Kd (HLA-A*02:01 [3]): 1.7 nM
Kd (HLA-C*03:03; source organism: Vaccinia virus WR): ≥ 20000 nM

Sequence: YGLERLAAM
Kd (HLA-C*07:02; source organism: human gammaherpesvirus 4): 18 nM

Sequence: ALMDYGFRV
Kd (HLA-A*69:01): 42 nM
Kd (HLA-C*03:03; source organism: Mycobacterium tuberculosis variant bovis BCG str. Pasteur 1173P2): ≥ 20000 nM

Sequence: LRAAIELPL
Kd (HLA-B*27:05; source organism: Mycobacterium tuberculosis H37Ra): 160 nM

Sequence: EQRAGYQAF
Kd (HLA-B*15:02; source organism: Vibrio vulnificus YJ016): 117 nM

Kd (HLA-C*07:02; source organism: Acanthisitta chloris): 29 nM
Sequence: HYNAFQWAI

Sequence: WLVNTYQNY
Kd (HLA-B*15:02; source organism: Cryptosporidium parvum): 80.2 nM

Kd (HLA-B*48:01; source organism: Photobacterium angustum S14): 175 nM
Sequence: MQALGHPIL

Sequence: HVIASMRHF
Kd (HLA-A*26:01 [4]): 2 nM
Kd (HLA-A*26:02; source organism: Vibrio vulnificus CMCP6): ≤ 1 nM

Sequence: LVALTLTSY
Kd (HLA-A*26:02; source organism: Yellow fever virus): 180 nM

Sequence: KRMGVQVQR
Kd (HLA-B*27:05; source organism: Influenza A virus (A/environment/Hong Kong/437-10/99 (H5N1))): 99.8 nM

Sequence: VQHAPQVSL
Kd (HLA-B*48:01; source organism: Giardia lamblia ATCC 50803): 137 nM

Kd (HLA-B*15:02; source organism: Escherichia coli str. K-12 substr. MG1655): 23.8 nM
Sequence: SQMPTSLNF
